Laboratory results taken from IntAct's records for PubMed 22885598.

B1: Autophagy-related protein 13 (Saccharomyces cerevisiae), Q06628 (parent)
chain: MVAEEDIEKQVLQLIDSFFLKTTLLICSTESSRYQSSTENIFLFDDTWFEDHSELVSELPEIISKWSHYDGRKELPPLVVETYLDLRQLNSSHLVRLKDHEGHLWNVCKGTKKQEIVMERWLIELDNSSPTFKSYSEDETDVNELSKQLVLLFRYLLTLIQLLPTTELYQLLIKSYNGPQNEGSSNPITSTGPLVSIRTCVLDGSKPILSKGRIGLSKPIINTYSNALNESNLPAHLDQKKITPVWTKFGLLRVSVSYRRDWKFEINNTNDELFSARHASVSHNSQGPQNQPEQEGQSDQDIGKRQPQFQQQQQPQQQQQQQQQQQRQHQVQTQQQRQIPDRRSLSLSPCTRANSFEPQSWQKKVYPISRPVQPFKVGSIGSQSASRNPSNSSFFNQPPVHRPSMSSNYGPQMNIEGTSVGSTSKYSSSFGNIRRHSSVKTTENAEKVSKAVKSPLQPQESQEDLMDFVKLLEEKPDLTIKKTSGNNPPNINISDSLIRYQNLKPSNDLLSEDLSVSLSMDPNHTYHRGRSDSHSPLPSISPSMHYGSLNSRMSQGANASHLIARGGGNSSTSALNSRRNSLDKSSNKQGMSGLPPIFGGESTSYHHDNKIQKYNQLGVEEDDDDENDRLLNQMGNSATKFKSSISPRSIDSISSSFIKSRIPIRQPYHYSQPTTAPFQAQAKFHKPANKLIDNGNRSNSNNNNHNGNDAVGVMHNDEDDQDDDLVFFMSDMNLSKEG
partner: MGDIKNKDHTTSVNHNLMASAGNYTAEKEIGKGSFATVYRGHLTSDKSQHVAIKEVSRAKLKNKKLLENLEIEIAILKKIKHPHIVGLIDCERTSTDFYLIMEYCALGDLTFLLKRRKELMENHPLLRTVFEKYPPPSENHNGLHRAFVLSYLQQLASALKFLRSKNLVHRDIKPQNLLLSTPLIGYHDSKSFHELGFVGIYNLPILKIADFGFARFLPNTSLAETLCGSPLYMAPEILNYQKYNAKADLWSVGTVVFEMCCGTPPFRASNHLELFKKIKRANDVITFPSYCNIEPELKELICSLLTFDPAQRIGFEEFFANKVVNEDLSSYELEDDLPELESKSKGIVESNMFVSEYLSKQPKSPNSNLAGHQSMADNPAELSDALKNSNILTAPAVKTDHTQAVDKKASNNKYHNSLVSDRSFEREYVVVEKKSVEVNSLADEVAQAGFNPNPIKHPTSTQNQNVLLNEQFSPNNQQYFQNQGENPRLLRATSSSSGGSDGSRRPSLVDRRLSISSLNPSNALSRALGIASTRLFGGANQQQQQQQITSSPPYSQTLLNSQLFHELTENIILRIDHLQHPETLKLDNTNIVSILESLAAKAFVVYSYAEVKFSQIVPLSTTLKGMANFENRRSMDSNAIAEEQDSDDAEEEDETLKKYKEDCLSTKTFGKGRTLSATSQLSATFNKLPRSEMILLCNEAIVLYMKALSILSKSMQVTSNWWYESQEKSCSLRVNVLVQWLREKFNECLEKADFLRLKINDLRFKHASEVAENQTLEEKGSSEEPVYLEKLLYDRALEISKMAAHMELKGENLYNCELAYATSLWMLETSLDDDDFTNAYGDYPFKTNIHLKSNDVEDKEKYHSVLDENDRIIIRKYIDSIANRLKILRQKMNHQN

Variants of: B1
Conditions: with atg1_yeast ATG1, P53104

effect of a mutation on the interaction	Variant
disrupting interaction	F468A
disrupting interaction	V469A

Variants of: B1
Conditions: with atg1_yeast ATG1, P53104
Remark: another data set of the same source

effect of a mutation on the interaction	Variant
decreasing interaction	F468A
